Source: US20240209039A1 (RIKEN, published 2024)

Tests used:
[1] = biological target: the molecule itself; assay: pseudo-native PAGE, self-association (homodimer), FIG. 17
[2] = biological target: the molecule itself; assay: pseudo-native PAGE (10% acrylamide, 0.1% SDS, no heat treatment), self-association
Protocol: After purification of the proteins with use of Ni-NTA, pseudo-native PAGE was carried out. The separation gel contained 10% acrylamide and 0.1% SDS. The sample buffer contained 2% SDS and 100 mM DTT. No heat treatment was carried out.

Row | Protein | binding result [1] | binding result [2]
1 | StayGold (CU17S/V168A mutant) (other, Made in E. coli JM109 (DE3) and purified on Ni-NTA; also called StayGold (dimer); not shown: N-terminal histidine tag from the pRSETB vector (purified on Ni-NTA)) MASTPFKFQLKGTINGKSFTVEGEGEGNSHEGSHKGKYVCTSGKLPMSWAALGTSFGYGMKYYTKYPSGLKNWFHEVMPEGFTYDRHIQYKGDGSIHAKHQHFMKNGTYHNIVEFTGQDFKENSPVLTGDMNVSLPNEVQHIPRDDGVECPVTLLYPLLSDKSKCVEAHQNTICKPLHNQPAPDVPYHWIRKQYTQSKDDTEERDHICQSETLEAHL | binds | 
2 | StayGold Y187A (other, not shown: histidine tag implied by Ni-NTA purification) MASTPFKFQLKGTINGKSFTVEGEGEGNSHEGSHKGKYVCTSGKLPMSWAALGTSFGYGMKYYTKYPSGLKNWFHEVMPEGFTYDRHIQYKGDGSIHAKHQHFMKNGTYHNIVEFTGQDFKENSPVLTGDMNVSLPNEVQHIPRDDGVECPVTLLYPLLSDKSKCVEAHQNTICKPLHNQPAPDVPAHWIRKQYTQSKDDTEERDHICQSETLEAHL |  | no binding
3 | StayGold L155T (other, not shown: histidine tag implied by Ni-NTA purification) MASTPFKFQLKGTINGKSFTVEGEGEGNSHEGSHKGKYVCTSGKLPMSWAALGTSFGYGMKYYTKYPSGLKNWFHEVMPEGFTYDRHIQYKGDGSIHAKHQHFMKNGTYHNIVEFTGQDFKENSPVLTGDMNVSLPNEVQHIPRDDGVECPVTLTYPLLSDKSKCVEAHQNTICKPLHNQPAPDVPYHWIRKQYTQSKDDTEERDHICQSETLEAHL |  | no binding
